Assay [1] deals with MSCs or MSC-derived fibroblasts (MSC-Fb). The experiment in a line: Myofibroblastic differentiation: αSMA expression by immunofluorescence and flow cytometry. Format: cell-based, human. How it is done: MSC-derived fibroblasts were subjected to 5 ng/mL recombinant human TGFβ1 (R&D Systems, Minneapolis, Minn.) for 7 days. Undifferentiated hMSCs were treated with TGFβ1 as control. The expression of αSMA (Abcam, Cambridge, Mass.) was evaluated by immunofluorescence with rhodamine-phalloidin (Invitrogen, Carlsbad, Calif.). The number of αSMA+ cells was quantified by flow cytometry.
Briefly, cells were trypsinized, counted, resuspended into 1×10^6 cells/tube and fixed in […] formaldehyde. Following washing in 0.1% triton, the cells were incubated with αSMA primary antibody (Abcam, Cambridge, Mass.) for 30 min. Following centrifugation at 400 g for 5 min, the cells were incubated with fluorochrome-labeled secondary antibody (Abcam, Cambridge, Mass.) for 30 min in the dark, and resuspended in PBS supplemented with 3% BSA and 1% sodium azide. The samples were then analyzed using a multifunctional cell sorter (FACSAria™ II; BD Biosciences, San Jose, Calif.).
Background: A flow cytometer gives signals particle by particle.

For assay [2], the system named is MSCs in collagen type I gel. Description: Collagen gel contraction assay. In kind it is cell-based, human. To be noted: cell-populated collagen lattices, up to 7 days. The protocol:
Neutralized collagen type I (2 mg/mL) (R&D Systems, Minneapolis, Minn.) was mixed thoroughly with 1×10^6/mL MSCs, MSC-Fb or αSMA+ cells. Cell-populated collagen solution was cast in 24-well plates for 1 hr at 37° C. to induce gelation. Upon 48-hr incubation, cell-populated collagen lattices were physically detached and allowed to float freely in medium. Up to the tested 7 days, the diameters of cell-populated collagen lattices were measured on digital images.

A further assay relates to keloid cell. Description: Keloid cell matrix synthesis. In kind it is cell-based. To be noted: 0, 50, 100, 200, 500 ng/ml.
Assay [3] deals with Human mesenchymal stem cells (hMSCs). Description: Real-time quantitative PCR of MSC, fibroblastic, osteogenic, chondrogenic and myofibroblastic markers in CCN2/CTGF-treated hMSCs. Format: cell-based. How it is done:
(§1) Two to four weeks following CCN2/CTGF treatment, collagen type I and tenascin-C (Tn-C) were assayed by ELISA using commercial kits (Chondrex, Redmond, Wash. and IBL-America, Minneapolis, Minn.). Collagen type I matrix was lysed using 0.5 M acetic acid. Collagen deposition was visualized using Trichrome staining. Total RNA was isolated using Trizol from CCN2/CTGF-treated hMSCs. Following lysing with Trizol, samples were incubated for 5 min at RT. A total of 0.2 mL chloroform per mL Trizol was added, and followed by mixing and incubation for 3 min. After centrifugation at 12,000×g and 4° C. for 15 min, the upper phase was transferred into a new tube with 500 μL isopropanol added. After 10 min incubation and another centrifugation for 10 min at 12,000×g, the supernatant was discarded. The pellet was washed with 1 mL 75% ethanol and dried for 5-10 min. RNA samples were eluted in 50 μL DEPC-water, assessed for concentration and purity at 260 and 280 nm, and stored at −80° C. prior to reverse transcription. All RNA samples were reverse transcribed using a kit (Applied Biosystems, Foster City, Calif.). For mRNA quantification, real-time quantitative PCR reactions with the cDNA samples were performed using 7300 Real Time PCR System TaqMan® gene expression assays (Applied Biosystems, Foster City, Calif.). Commercially available primers and probes for human collagen types I and III, Tn-C, fibronectin (FN), matrix metallopeptidase-1 (MMP-1), fibroblastic specific protein 1 (FSP1), and vimentin were used (49, 50). Collagen type II (Col-II) and osteocalcin (OC) were selected as chondrogenic and osteogenic differentiation markers, respectively. CD29, CD44, CD105, CD106, CD117, BMPR, and sca1 were selected as MSC markers (30, 31). GAPDH was used as housekeeping gene.

The subject of assay [4] is CCN2/CTGF-treated MSCs (MSC-Fb). Description: Osteogenic, chondrogenic and adipogenic differentiation of CCN2/CTGF-treated MSCs (von Kossa, Alizarin Red, Safranin O, Oil-Red O). Format: cell-based, human. How it is done: Chondrogenic medium was supplemented with 10 ng/mL transforming growth factor β3 (TGFβ3) (R&D Systems, Minneapolis, Minn.), whereas osteogenic medium was supplemented with 100 nM dexamethasone, 10 mM β-glycerophosphate, and 0.05 mM ascorbic acid-2-phosphate (Sigma) per our prior methods (31, 51). At Days 14 and 28, von Kossa staining and calcium assay was performed to evaluate osteogenic differentiation, whereas safranin O (Saf-O) straining and glycosaminoglycan (GAG) assays were performed to evaluate chondrogenic differentiation (Blyscan™, Biocolor, UK).
Osteogenic and chondrogenic medium were prepared as described above. Adipogenic medium contained […], 0.5 mM isobutylmethylxanthine, and […] per our prior methods (31, 52, 53). In 4 wks, Alizarin Red, Saf-O, and Oil-Red O staining were performed.

For assay [5], the system named is calvarial suture explants. The experiment in a line: Ex vivo modulation of calvarial morphogenesis in organ culture. The arrangement: species or system Sprague-Dawley rats. How it is done:
Calvarial explants, including frontal and parietal bones with intervening interfrontal, coronal and sagittal sutures were harvested with intact dura mater from p10 male Sprague-Dawley rats (Harlan, Indianapolis, Ind.). Isolated calvaria were placed in 12-well tissue culture plates with serum-free medium supplemented with 0 or 50 ng/mL recombinant human CCN2/CTGF (35), with medium change every 2 days. The CCN2/CTGF concentration was determined (data not shown). Five to 25 days following CCN2/CTGF treatment, Tn-C contents in supernatant were assayed using ELISA. Explant-cultured calvarial sutures were sectioned sagittally for H&E staining and immunohistochemistry. Calvarial sutures were scanned with pCT (vivaCT 40; Scanco, Southeastern, Pa.) to measure suture width.

The subject of assay [6] is calvarial suture mesenchymal cells. Description: Fibroblastic differentiation of calvarial suture mesenchymal cells. In kind it is cell-based, rat. The note with it: 100 ng/mL, cells from p7 patent calvarial sutures. The protocol: To isolate calvarial mesenchymal cells, the posterior interfrontal suture excluding calvarial bones was carefully dissected from p7 rat calvaria using surgical scissors. The overlying periosteum and the underlying dura mater were removed under dissection microscope. The isolated suture mesenchyme was lysed using 2 mg/mL collagenase for 1 hr at 37° C., and filtered with a tissue strainer (Fisher, Pittsburgh, Pa.). After centrifugation, the collected cells were counted using trypan blue, plated at 20,000-30,000 cells per 6-well plate, and allowed to attach for about 5 days, followed by medium change every 2-3 days until confluence. P1 or P2 calvarial cells were induced for osteogenic, chondrogenic, adipogenic, and fibroblastic differentiations for 4 wks as described below.

For assay [7], the system named is Human mesenchymal stem cells (hMSCs). Description: CCN2/CTGF fibroblastic differentiation of hMSCs: collagen deposition (Trichrome staining), collagen type I and tenascin-C ELISA. Format: cell-based.
From the text: Human mesenchymal stem cells (hMSCs) were isolated from fresh whole bone marrow samples of two anonymous adult donors (age range: 20-25 yrs old) (AllCells, Berkeley, Calif.). Mononucleated and adherent cells were purified by centrifugation through a density gradient (Ficoll-Paque) per our prior methods (30) and using negative selection following manufacturer's protocols (RosetteSep, StemCell Technologies, Vancouver, Canada) to remove hematopoietic cells and other differentiated cells.
Briefly, bone marrow was transferred to a 50 mL tube, followed by addition of […] of RosetteSep and incubation for 20 min. Then 15 mL PBS in 2% fetal bovine serum (FBS) and 1 mM ethylenediaminetetraacetic acid (EDTA) were added to a total volume of ˜30 mL. The sample was layered on 15 mL Ficoll-Paque and centrifuged 25 min at 3000×g. The entire layer of enriched cells was removed from Ficoll-Paque interface. The cocktail was centrifuged at 1000 rpm for 10 min. Collected cells were counted using trypan blue, plated at 0.5-1 million cells per 100 mm dish and allowed to attach for about 5 days, followed by regular medium change every two days. At 80-90% confluence, cells were trypsinized, centrifuged, resuspended in growth medium as passage 1 (P1) cells, and incubated in 5% CO2 at 37° C., with fresh medium changes every 3-4 days. Growth medium was defined as Dulbecco's Modified Eagle's Medium-Low Glucose (DMEM-LG; Sigma, St. Louis, Mo.), 1% antibiotic (1× Antibiotic-Antimycotic, including […] Penicillin G sodium, 10 mg/mL Streptomycin sulfate and 0.25 μg/mL amphotericine B) (Gibco, Invitrogen, Carlsbad, Calif.) and 10% Fetal Bovine Serum (FBS; Atlanta Biologicals, Norcross, Ga.).
P3 or P4 hMSCs were culture-expanded in monolayer (˜5,000 cells/well) in 12-well plates. At 80-90% confluence, hMSCs were culture-supplemented with 0, 10, 50 or 100 ng/mL recombinant human connective tissue growth factor (CTGF) (BioVendor, Candler, N.C.) and 50 μg/mL ascorbic acid (Sigma), with conditioned medium change every third day. […] Accordingly, 100 ng/mL CCN2/CTGF was selected for fibroblastic differentiation for in vitro experiments.
as §1
Background: An ELISA detects its analyte on a solid surface through an enzyme-linked reagent.

Where [8] appears, read: 2 and 4 wks of CCN2/CTGF treatment.
[9] abbreviates: 2 and 4 wks, vs MSCs without CCN2/CTGF.

Consider three molecules from US20130028978A1, “COMPOSITIONS AND METHODS FOR WOUND TREATMENT” (The Trustees of Columbia University in the City of New York, priority 2009, published 2013).

“Also recorded” adds a separate entry of the source.

Turning to “TGFβ1: recombinant human TGFβ1 (R&D Systems), a known stimulant for myofibroblast phenotype”, in assay [1] (5 ng/mL TGFβ1 on CCN2/CTGF-treated MSCs / MSC-derived fibroblastic cells), the “αSMA expression (immunofluorescence)” value is on record as “readily expressed αSMA+ microfilaments”. In addition, the “cells that gained αSMA phenotype (flow cytometry)” value in assay [1] (TGFβ1 stimulation of CCN2/CTGF-treated MSCs (MSC-Fb)) came out at 31.9%; in assay [1] (TGFβ1 stimulation of undifferentiated MSCs without prior CCN2/CTGF treatment) it was 1.8%. Also, in assay [2], the “contraction of collagen gel” value is on record as “moderate contraction”.
Consider `COC(=O)[C@@]1(O)C[C@H]2O[C@]1(C)n1c3ccccc3c3c4c(c5c6ccccc6n2c5c31)C(=O)NC4` [K252A], for which the “keloid cell matrix synthesis” value in the assay with keloid cell is recorded as “inhibits keloid cell matrix synthesis”.

B1: CCN2/CTGF: recombinant human connective tissue growth factor (BioVendor); 36-38 kDa cysteine-rich protein of the CCN family; SEQ ID NO: 1 (protein, listed as Homo sapiens)
chain: MTAASMGPVRVAFVVLLALCSRPAVGQNCSGPCRCPDEPAPRCPAGVSLVLDGCGCCRVCAKQLGELCTERDPCDPHKGLFCDFGSPANRKIGVCTAKDGAPCIFGGTVYRSGESFQSSCKYQCTCLDGAVGCMPLCSMDVRLPSPDCPFPRRVKLPGKCCEEWVCDEPKDQTVVGPALAAYRLEDTFGPDPTMIRANCLVQTTEWSACSKTCGMGISTRVTNDNASCRLEKQSRLCMVRPCEADLEENIKKGKKCIRTPKISKPIKFELSGCTSMKTYRAKFCGVCTDGRCCTPHRTTTLPVEFKCPDGEVMKKNMMFIKTCACHYNCPGDNDIFESLYYRKMYGDMA
As to B1, in assay [3] (setting [8]), the “MSC stemness markers (CD29, CD44, CD105, CD106, CD117, BMPR, Sca1)” value was “steady decreases; also recorded: gradually attenuated”; the “fibroblastic mRNA markers (collagen types I and III, Tn-C, fibronectin, MMP-1, FSP1, vimentin)” value was “concomitant increases; also recorded: gradually increased”. For the same molecule, in assay [3] (CCN2/CTGF-treated MSCs), the “chondrogenic marker collagen type II expression” value is reported as “undetectable”, the “myofibroblastic marker αSMA expression (RT-PCR)” value is listed as “αSMA negative; also recorded: undetectable” and the “osteogenic marker osteopontin expression” value is “undetectable; also recorded: minimally expressed”. Also, in assay [4] (CCN2/CTGF-treated MSCs), the “Safranin O staining” value was “negative” and the “Von Kossa staining” value is on record as “negative”. Further, in assay [4] (after 4 wk CCN2/CTGF stimulation (100 ng/mL), vs CCN2/CTGF-free MSCs), the “ability to differentiate into osteogenic, chondrogenic and adipogenic cells” value is recorded as “diminished ability to differentiate; also recorded: minimal capacity to further differentiate”. In addition, in assay [5] (50 ng/mL to p10 explant for 25 days), the “rescue of calvarial suture from ectopic mineralization” value is “rescued the calvarial suture from undergoing ectopic mineralization”. The “rescue of calvarial suture from synostosis” value in assay [5] (100 ng/mL, ex vivo culture to p35) is “rescued calvarial suture from undergoing synostosis”. Besides, the “FSP1 and vimentin expression in calvarial suture” value in assay [5] (ex vivo CCN2/CTGF-treated suture) was “expressed”. The “suture width (μCT)” value in assay [5] (p35, vs without CCN2/CTGF) was “significantly greater; also recorded: significantly wider”. For the same molecule, the “Tn-C (tenascin C) content of sutures” value in assay [5] (vs CCN2/CTGF-free sutures) is listed as “significantly greater; also recorded: significantly more”. For the same molecule, in assay [6], the “differentiation into fibroblast-like cells (Trichrome)” value was “readily differentiated into fibroblast-like cells that are highly Trichrome positive”. Besides, the “αSMA expression (flow cytometry)” value in assay [1] (CCN2/CTGF-treated MSCs (MSC-Fb), no TGFβ1) is on record as “general absence of αSMA; also recorded: absence of αSMA expression”. Further, the “αSMA expression (immunofluorescence)” value in assay [1] (CCN2/CTGF-treated MSCs, no TGFβ1) is recorded as “did not express αSMA; also recorded: minimal”. Besides, the “collagen deposition with dose (Goldner's Trichrome staining)” value in assay [7] (0, 10, 50 or 100 ng/mL, 4 wks) is on record as “increased with increasing CCN2/CTGF doses”. The collagen synthesis result in assay [7] (10 ng/mL) is listed as “sufficient to stimulate collagen synthesis”. The collagen synthesis entry in assay [7] (50 ng/mL and 100 ng/mL, compared with 10 ng/mL) was “apparently more potent”. For the same molecule, the “collagen synthesis (Trichrome staining)” value in assay [7] (100 ng/mL, 4 wks, vs MSCs without CCN2/CTGF) was “induced remarkable collagen synthesis; also recorded: prompted substantial collagen synthesis”. For the same molecule, in assay [7] (setting [9]), the “collagen type I content (ELISA)” value was “significantly greater; also recorded: significantly higher” and the “tenascin-C content (ELISA)” value is given as “significantly greater; also recorded: significantly higher”. The “contraction of collagen gel” value in assay [2] is “moderate contraction”.
